# Measurements taken from US8044021B2, “Sustained release of apo A-I mimetic peptides and methods of treatment” (Abbott Cardiovascular Systems Inc., priority 2007, dated 2011).
# Ends that are not written are not given here.
# How the values were obtained:
# [1] = test system: reverse cholesterol transport; details: cited from earlier work
# [2] = turbidity change of DMPC multilamellar vesicles (MLV) after mixing with peptide; type: physicochemical
# Experimental: A mimetic peptide, SEQ ID NO: 4, was mixed with multilamellar vesicles comprised of DMPC. A DMPC chloroform solution was gently dried by nitrogen stream in the fume hood or by rotor evaporator. Resultant lipid film was further dried in vacuum desiccators and subjected to vacuum for at least 3 hours to remove residual chloroform. Phosphate buffered saline (PBS) was added to the lipid film and mixed using a vortex mixer to prepare an MLV suspension (2.5 mg/mL). The peptide was dissolved in PBS (1 mg/mL) then mixed with the same volume of MLV suspension at room temperature. […] At 0.5 mg/mL mimetic peptide in solution, the absorbance at 400 nm is zero. At 1.25 mg/mL DMPC in solution, the absorbance at 400 nm is 0.1. When the two solutions are combined and after approximately 5 minutes of mixing, the absorbance begins to approach zero. After approximately 15 minutes of mixing, the solution becomes completely clear, i.e., the absorbance is zero, thus evidencing mimetic peptide/phospholipid complexing.
# [3] = circular dichroism (CD) spectra, calculated percent secondary structure; type: physicochemical
# [4] = CD spectra after heating then cooling; type: physicochemical; details: 25° C., heated to 70° C., cooled back to 25° C.; 0.0625-0.5 mg/mL
# Experimental: As shown in each chart (vii) through (x), a CD spectrum of the mimetic peptide was obtained at t1=25° C., then heated to t2=70° C., then cooled back to t3=25° C. for varying concentrations, e.g., 0.5 mg/mL mimetic peptide, 0.25 mg/mL mimetic peptide, 0.125 mg/mL mimetic peptide, and 0.0625 mg/mL mimetic peptide. The spectrums at t and t3 show a substantially identical spectrum for each of t1 and t3 at the various concentrations, thus indicating the mimetic peptide's secondary structure change is reversible when subjected to heat.
molecule,measurement,setting,value
"DWFKAFYDKVAEKFKEAF (not fully specified) [D-4F, 18-mer apo A-I mimetic peptide 4F, D enantiomer]",reverse cholesterol transport in vitro,[1]; when a phospholipid complex is presented,function more effectively
same,reverse cholesterol transport,[1]; without a lipid complex,effective
"CCCCCCCCCCCCCC(=O)OC[C@H](COP(=O)([O-])OCC[N+](C)(C)C)OC(=O)CCCCCCCCCCCCC [DMPC, dimyristoylphosphatidylcholine, reference compound]",absorbance at 400 nm,[2]; 1.25 mg/mL DMPC in solution (MLV in PBS),0.1
"Ac-DWFKAFYDKVAEKFKEAF-NH2 [SEQ ID NO: 4, 18-mer peptide, 4F, N-acetyl, C-amide]",alpha helicity,[3]; 0.125 mg/mL mimetic peptide,10.5%
same,alpha helicity,[3]; 0.25 mg/mL mimetic peptide,16%
same,alpha helicity,[3]; 0.5 mg/mL mimetic peptide,19.5%
same,secondary structure change when subjected to heat,[4],reversible
same,absorbance at 400 nm,[2]; 0.5 mg/mL mimetic peptide in solution (PBS),zero
PALEDLRQGLLPVLESFKVFLSALEEYTKKLNTQ [33-mer peptide mimetic],need of phospholipid complex for effective reverse cholesterol transport,[1],requires phospholipid complex formation
